Measured values as given in patent publication US5972599, “High affinity nucleic acid ligands of cytokines” (NeXstar Pharmaceuticals, Inc.).
Substitutions are numbered along the chain they refer to.

How the values were obtained:
[1] = target: T1, TNF-alpha (Homo sapiens, UniProt P01375 P01375:77-233); assay: filter; class I; conditions: tags: Genzyme or R&D Systems; chain copies: 3 inferred
[2] = target: T1, TNF-alpha; assay: filter; no value shown, Kd above 1 uM per footnote; DPBS; conditions: tags: Genzyme or R&D Systems; chain copies: 3
[3] = target: T1, TNF-alpha; assay: filter; 2'F version; conditions: tags: Genzyme or R&D Systems; chain copies: 3 inferred
[4] = target: T1, TNF-alpha; assay: competition; U937 cells; conditions: tags: Genzyme or R&D Systems; chain copies: 3 inferred
Procedure: (§1) A receptor binding competition assay was used to determine the bioactivity of the RNA ligands. ^125I labelled hTNFα at 0.1 nM was incubated in 50 µl of binding medium (PBS with 0.5 mM Mg^++, 0.2% BSA, 0.02% sodium azide, 1 U/µl RNasin) for 15 min at 4° C. with serially diluted competitors at 10^-4 to 10^-11 M, and 1×10^4/µl U937 cells. Duplicate aliquots were subsequently removed, centrifuged through 2:1 dibutyl-phthalate:dinonyl-phthalate mixture to separate free and bound ^125I labelled hTNFα, and the radioactivity in the pellet was measured on a gamma counter. Nonspecific binding was determined by inclusion of a 200-fold molar excess of unlabeled TNF.

[5] = target: T2, IL-4 (Homo sapiens, UniProt P05112 P05112:25-153); assay: filter; group 2 stated to bind IL-4; conditions: tags: R&D Systems
T2 sequence (P05112 25-153, one chain of several): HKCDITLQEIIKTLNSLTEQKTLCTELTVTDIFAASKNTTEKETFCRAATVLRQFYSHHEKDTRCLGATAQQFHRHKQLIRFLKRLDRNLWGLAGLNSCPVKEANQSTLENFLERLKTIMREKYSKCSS

[6] = target: T2, IL-4; assay: filter; full-length; conditions: tags: R&D Systems
[7] = target: T1, TNF-alpha; assay: competition; U937 cells; 2'F version; conditions: tags: Genzyme or R&D Systems; chain copies: 3 inferred
Procedure: as §1

T1 sequence (P01375 77-233, one chain of several): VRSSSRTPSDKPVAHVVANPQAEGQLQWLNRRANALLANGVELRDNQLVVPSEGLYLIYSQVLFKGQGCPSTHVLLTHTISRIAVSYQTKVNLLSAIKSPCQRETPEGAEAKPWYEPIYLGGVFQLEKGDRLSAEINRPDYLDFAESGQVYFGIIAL

B1: TNF 8A (ssRNA)
RNA: GGGAGCUCAGAAUAAACGCUCAACAGUGGAGGCUGUCCAAACCCACCCACCCCUUCGACAUGAGGCCCGGAUCCGGC
[1]
  Kd: 785 nM

B2: TNF 21A (ssRNA)
RNA: GGGAGCUCAGAAUAAACGCUCAACGUCUAGGAACUGCGUCGCCUCAACAGCGCUUCGACAUGAGGCCCGGAUCCGGC
[2]
  Kd: > 1000 nM

B3: TNF 12C (ssRNA)
RNA: GGGAGCUCAGAAUAAACGCUCAAGUCCGCAUGAUGCUUCGAACAGCAUACAACUUCGACAUGAGGCCCGGAUCCGGC
[1]
  Kd: 690 nM

B4: TNF 25A 2'F (ssRNA)
RNA: B3 RNA with U25G, A33C, U34C, G35C, U38C, G40U, A49G
modifications: 2'-F all C and U
[3]
  Kd: 445 nM

B5: TNF 4C (ssRNA)
RNA: GGGAGCUCAGAAUAAACGCUCAACUAGGCCCACCGUCCCUUCUAACAACGUCUUCGACAUGAGGCCCGGAUCCGGC
[1]
  Kd: 92 nM
[4]
  Ki: 1200 nM

B6: IL-4 2'F/NH2-14 (ssRNA)
RNA: GGGAGACAAGAAUAAACGCUCAACAGCCAAGGGUUGGAUAGGGGGUAGGGAGCCGUAGCAGCGUUCGACAGGAGGCUCACAACAGGC
modifications: 2'-F C, 2'-NH2 U
[5]
  binding result: binds

B7: TNF 17A (ssRNA)
RNA: GGGAGCUCAGAAUAAACGCUCAAGGUCGAACUAGCGCUGGAGCGUGCGUUGGUUUCGACAUGAGGCCCGGAUCCGGC
[2]
  Kd: > 1000 nM

B8: TNF 6C (ssRNA)
RNA: GGGAGCUCAGAAUAAACGCUCAAUGUCGCACGUGUCCCGGCCCGCCCUACCCCUUCGACAUGAGGCCCGGAUCCGGC
[2]
  Kd: > 1000 nM

B9: IL-4 2'F-21 (ssRNA)
RNA: GGGAGACAAGAAUAAACGCUCAAAGGAGCGCCAUGAAGCAAAGGGAGGAUUGUGGUGGAAGGCUUCGACAGGAGGCUCACAACAGGC
modifications: 2'-F all C and U
[6]
  Kd: 11 nM

B10: TNF 3A 2'F (ssRNA)
RNA: GGGAGCUCAGAAUAAACGCUCAAGAUCGACGCAUCGAGUCGCCUCAUCGCUCCUUCGACAUGAGGCCCGGAUCCGGC
modifications: 2'-F all C and U
[3]
  Kd: 623 nM

B11: TNF 15A (ssRNA)
RNA: GGGAGCUCAGAAUAAACGCUCAACGUCGAUCGCGUGCUGUAGCCUCAGGCACCUUCGACAUGAGGCCCGGAUCCGGC
[2]
  Kd: > 1000 nM

B12: TNF 16C 2'F (ssRNA)
RNA: GGGAGCUCAGAAUAAACGCUCAACCUGGUGGUCGUGCGGCUGUCGCCUCAAGGUUCGACAUGAGGCCCGGAUCCGGC
modifications: 2'-F all C and U
[7]
  Ki: 9190 nM
[3]
  Kd: 123 nM

B13: IL-4 2'F-18 (ssRNA)
RNA: GGGAGACAAGAAUAAACGCUCAAGCUGCCCAAGGAAUUUAACUUGGACCGCGAUCUGGAGUCUUCGACAGGAGGCUCACAACAGGC
modifications: 2'-F all C and U
[6]
  Kd: 43 nM

B14: TNF 6A 2'F (ssRNA)
RNA: GGGAGCUCAGAAUAAACGCUCAACCACUGGCUAGGAACUCGAGUACUGGGUGGUUCGACAUGAGGCCCGGAUCCGGC
modifications: 2'-F all C and U
[7]
  Ki: 8160 nM
[3]
  Kd: 74 nM

B15: IL-4 2'NH2-29 (ssRNA)
RNA: GGGAGACAAGAAUAAACGCUCAAGAGCUGGUGAGCCACGUAUACGGCCUUAGGGGCUUGGGCGUUCGACAGGAGGCUCACAACAGGC
modifications: 2'-NH2 all C and U
[6]
  Kd: 8.3 nM

B16: TNF 9C 2'F (ssRNA)
RNA: GGGAGCUCAGAAUAAACGCUCAAAUGGUGGAGGCCAUCUCAAACCCACGACACUUCGACAUGAGGCCCGGAUCCGGC
modifications: 2'-F all C and U
[3]
  Kd: 400 nM

B17: TNF 27A (ssRNA)
RNA: GGGAGCUCAGAAUAAACGCUCAAGUCGCUCGAUCGUUUCAUGUCCGUUCGACCUUCGACAUGAGGCCCGGAUCCGGC
[2]
  Kd: > 1000 nM

B18: TNF 22A (ssRNA)
RNA: GGGAGCUCAGAAUAAACGCUCAAGUCGGAUGGUUUUGCGCGUUUCCCGUUCGACAUGAGGCCCGGAUCCGGC
[2]
  Kd: > 1000 nM

B19: TNF 4A 2'F (ssRNA)
RNA: GGGAGCUCAGAAUAAACGCUCAACGCACUCGGACGGAAUCUCCGUAGGACACGUUCGACAUGAGGCCCGGAUCCGGC
modifications: 2'-F all C and U
[3]
  Kd: 178 nM

B20: IL-4 2'F/NH2-18 (ssRNA)
RNA: GGGAGACAAGAAUAAACGCUCAACCGCCUGCGAUAGUUAGACCGUUGAGCUGAGAGCAACACUUUCGACAGGAGGCUCACAACAGGC
modifications: 2'-F all C, 2'-NH2 all U
[6]
  Kd: 30 nM

B21: TNF 23A 2'F (ssRNA)
RNA: GGGAGCUCAGAAUAAACGCUCAACCUCAUCCUCGCACGCCAUCGCCUGAACCGUUCGACAUGAGGCCCGGAUCCGGC
modifications: 2'-F all C and U
[7]
  Ki: 14700 nM
[3]
  Kd: 400 nM

B22: TNF 16A (ssRNA)
RNA: GGGAGCUCAGAAUAAACGCUCAAGGUGGAAGGCCUUUGAAGCCCGUACAUCUCCUUCGACAUGAGGCCCGGAUCCGGC
[2]
  Kd: > 1000 nM

B23: TNF 8C 2'F (ssRNA)
RNA: GGGAGCUCAGAAUAAACGCUCAAGUCCACACUUUGCCGAGCGUCCUAGUGUUCGACAUGAGGCCCGGAUCCGGC
modifications: 2'-F all C and U
[3]
  Kd: 503 nM

B24: TNF 26A (ssRNA)
RNA: GGGAGCUCAGAAUAAACGCUCAACCCUCGUGCGUGCGCUUGGAGCGUGGCGCAUUCGACAUGAGGCCCGGAUCCGGC
[2]
  Kd: > 1000 nM

B25: IL-4 2'F/NH2-43 (ssRNA)
RNA: GGGAGACAAGAAUAAACGCUCAACAACGCUGACCAUGGGAGGAAUGUGGGAAGGGCGCCAGCGUUCGACAGGAGGCUCACAACAGGC
modifications: 2'-F C, 2'-NH2 U
[5]
  binding result: binds

B26: TNF 5C (ssRNA)
RNA: GGGAGCUCAGAAUAAACGCUCAACAGUCACGAACGUGCGCCGGAAGAACGCUCUUCGACAUGAGGCCCGGAUCCGGC
[2]
  Kd: > 1000 nM

B27: IL-4 2'F-12 (ssRNA)
RNA: GGGAGACAAGAAUAAACGCUCAAGUCUGACUAUUGGGGCGCCACAAUAUCAACGGCUGUACUUCGACAGGAGGCUCACAACAGGC
modifications: 2'-F all C and U
[6]
  Kd: 30 nM

B28: IL-4 2'F/NH2-2 (ssRNA)
RNA: GGGAGACAAGAAUAAACGCUCAAGACGAACGACCAAGGGACGGGUGGGCAAAUAGGGAUGCCGUUCGACAGGAGGCUCACAACAGGC
modifications: 2'-F C, 2'-NH2 U
[5]
  binding result: binds

B29: IL-4 2'F/NH2-28 (ssRNA)
RNA: GGGAGACAAGAAUAAACGCUCAAGAUCCUGCGACGCCAGGGGUGGAUAGGGGGAAGGGAGCGGUUCGACAGGAGGCUCACAACAGGC
modifications: 2'-F all C, 2'-NH2 all U
[6]
  Kd: 8.7 nM

B30: IL-4 2'F/NH2-16 (ssRNA)
RNA: GGGAGACAAGAAUAAACGCUCAAGGUACGACCAAGGAAUGUGGGUGGAAGAGGGCGCCGUACCUUCGACAGGAGGCUCACAACAGGC
modifications: 2'-F C, 2'-NH2 U
[5]
  binding result: binds

B31: IL-4 2'F/NH2-11 (ssRNA)
RNA: B30 RNA with C55U
modifications: 2'-F C, 2'-NH2 U
[5]
  binding result: binds

B32: TNF 19A (ssRNA)
RNA: GGGAGCUCAGAAUAAACGCUCAAGUCGAUGCGCAGUCCGCCUCAGCUGCACUGUUCGACAUGAGGCCCGGAUCCGGC
[2]
  Kd: > 1000 nM

B33: TNF 7C (ssRNA)
RNA: GGGAGCUCAGAAUAAACGCUCAACAGGUGGCACCGCCCUUCCAACACGGUGCGUUCGACAUGAGGCCCGGAUCCGGC
[1]
  Kd: 297 nM

B34: TNF 7C 2'F (ssRNA)
RNA: B33 RNA
modifications: 2'-F all C and U
[3]
  Kd: 442 nM

B35: TNF 14C 2'F (ssRNA)
RNA: GGGAGCUCAGAAUAAACGCUCAACGGCUUGCAGGUCGCCGAAAUGACCGCACAUUCGACAUGAGGCCCGGAUCCGGC
modifications: 2'-F all C and U
[7]
  Ki: 11500 nM
[3]
  Kd: 133 nM

B36: TNF 10C (ssRNA)
RNA: GGGAGCUCAGAAUAAACGCUCAACGCCGAGACCCACCUCAUAACACCGCUACCUUCGACAUGAGGCCCGGAUCCGGC
[1]
  Kd: 500 nM

B37: TNF 17C (ssRNA)
RNA: GGGAGCUCAGAAUAAACGCUCAAGAUCGAAGUUGUCGUCCGCCUCAGCGACUCUUCGACAUGAGGCCCGGAUCCGGC
[2]
  Kd: > 1000 nM
